Laboratory results: patent US20250027945A1 (University of California, published 2025)

Legend:
[1] = biological target: T1, human RYK on the surface of human tumor cell lines (human, UniProt P34925 46-607); test: flow cytometry, HELA cells (ovarian as printed), 5 ug/ml 2-D11-Alexa647; line unmarked (no staining)
T1 construct: whole, on cells; Endogenous expression
Method: (§1) Table 1 provides the flow cytometry data on various cancer cell lines stained with fluorochrome-conjugated 2-D11, as depicted in FIG. 8. The name of each cell line is listed in the first column and the tissue of origin is listed in the second column. Binding of the 2-D11 mAb to human RYK was assessed by flow cytometric staining and analysis by staining on ice for 20 minutes with 5 μg/ml of 2-D11 anti-human RYK-Alexa647 conjugated mAb or equal amounts of isotype matched control mAb, washed, and analyzed. The median fluorescence intensity (MFI) of 2-D11 stained cells is listed in the middle column and the MFI of isotype control stained cells are listed in the in the adjacent column. Cell lines were scored as “++”, “+”, or neg (unmarked with “+”) lines based on the ratio of median fluorescence intensity (MFI) of stained cells relative to the MFI of isotype control stained cells (MFIR).
(§2) The name of each cell line is listed in the first column and the tissue of origin is listed in the second column. Binding of the 2-D11 mAb to human RYK was assessed by flow cytometric staining and analysis by staining on ice for 20 minutes with 5 μg/ml of 2-D11 anti-human RYK-Alexa647 conjugated mAb or equal amounts of isotype matched control mAb, washed and analyzed. […]

[2] = biological target: T1, human RYK on the surface of human tumor …; test: flow cytometry, H446 cells (lung), 5 ug/ml 2-D11-Alexa647
Method: as §1, §2

[3] = biological target: T1, human RYK on the surface of human tumor …; test: flow cytometry, SW948 cells (colon), 5 ug/ml 2-D11-Alexa647; line unmarked (no staining)
Method: as §1, §2

[4] = biological target: T1, human RYK on the surface of human tumor …; test: flow cytometry, T24 cells (bladder), 5 ug/ml 2-D11-Alexa647
Method: as §1, §2

[5] = biological target: T1, human RYK on the surface of human tumor …; test: flow cytometry, DU-145 cells (prostate), 5 ug/ml 2-D11-Alexa647; line unmarked (no staining)
Method: as §1, §2

[6] = biological target: T1, human RYK on the surface of human tumor …; test: flow cytometry, SK-MEL-2 cells (skin), 5 ug/ml 2-D11-Alexa647; line unmarked (no staining)
Method: as §1, §2

[7] = biological target: T1, human RYK on the surface of human tumor …; test: flow cytometry, SK-OV-3 cells (ovarian), 5 ug/ml 2-D11-Alexa647; line unmarked (no staining)
Method: as §1, §2

[8] = biological target: T1, human RYK on the surface of human tumor …; test: flow cytometry, A673 cells (Ewings sarcoma), 5 ug/ml 2-D11-Alexa647
Method: as §1, §2

[9] = biological target: T1, human RYK on the surface of human tumor …; test: flow cytometry, NCI H226 cells (lung), 5 ug/ml 2-D11-Alexa647
Method: as §1, §2

[10] = biological target: T1, human RYK on the surface of human tumor …; test: flow cytometry, HS683 cells (brain), 5 ug/ml 2-D11-Alexa647
Method: as §1, §2

[11] = biological target: T1, human RYK on the surface of human tumor …; test: flow cytometry, CAPAN-1 cells (pancreas), 5 ug/ml 2-D11-Alexa647
Method: as §1, §2

[12] = biological target: T1, human RYK on the surface of human tumor …; test: flow cytometry, SKBR3 cells (breast), 5 ug/ml 2-D11-Alexa647
Method: as §1, §2

[13] = biological target: T1, human RYK on the surface of human tumor …; test: flow cytometry, CAPAN-2 cells (pancreas), 5 ug/ml 2-D11-Alexa647; line unmarked (no staining)
Method: as §1, §2

T1 sequence (P34925 46-607 limits assumed, form in doubt): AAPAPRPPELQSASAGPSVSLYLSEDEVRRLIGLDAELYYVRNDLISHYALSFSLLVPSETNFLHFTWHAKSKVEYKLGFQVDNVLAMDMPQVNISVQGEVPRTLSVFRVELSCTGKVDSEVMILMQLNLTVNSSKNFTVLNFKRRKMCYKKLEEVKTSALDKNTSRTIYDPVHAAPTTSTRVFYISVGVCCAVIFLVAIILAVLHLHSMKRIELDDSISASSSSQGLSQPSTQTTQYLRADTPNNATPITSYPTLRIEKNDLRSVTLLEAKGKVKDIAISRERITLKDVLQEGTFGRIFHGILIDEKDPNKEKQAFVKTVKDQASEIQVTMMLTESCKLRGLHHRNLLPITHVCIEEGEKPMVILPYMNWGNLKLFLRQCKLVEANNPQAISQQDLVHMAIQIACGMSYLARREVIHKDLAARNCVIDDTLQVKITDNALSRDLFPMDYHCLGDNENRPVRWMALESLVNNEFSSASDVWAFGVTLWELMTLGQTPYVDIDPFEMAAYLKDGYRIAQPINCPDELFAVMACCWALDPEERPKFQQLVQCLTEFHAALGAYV

MFIR (MFI ratio to isotype control) [1]: 1.1
MFIR (MFI ratio to isotype control) [2]: 2.6
MFIR (MFI ratio to isotype control) [3]: 1.1
MFIR (MFI ratio to isotype control) [4]: 1.6
MFIR (MFI ratio to isotype control) [5]: 1.3
MFIR (MFI ratio to isotype control) [6]: 1.1
MFIR (MFI ratio to isotype control) [7]: 1.1
MFIR (MFI ratio to isotype control) [8]: 1.5
MFIR (MFI ratio to isotype control) [9]: 2
MFIR (MFI ratio to isotype control) [10]: 2.5
MFIR (MFI ratio to isotype control) [11]: 1.5
MFIR (MFI ratio to isotype control) [12]: 1.6
MFIR (MFI ratio to isotype control) [13]: 1.3
B1: 2-D11 anti-human RYK mAb (antibody, V domains shown)
VH: QVQLKESGPGLVAPSQSLSITCSVSGFSLNDYGVNWVRQPPGKDLEWLGMIWGDGVTEYNSTLKSRLSISKDNSKSQVFLKMNNLQTEDTARYYCVRQGSGVWFAHWGQGTLVSVSS
VL: DVLVTQTPLSLPVSLGDQASISCRSSQTIVHSNGNTYLEWYLQKPGQSPKLLIYKVSNRFSGVPDRFSGSGSGTDFTLKISRVEAEDLGIYYCFQGSHVPYTFGGGTKLEIK
notes: Mouse hybridoma mAb, kappa light chain, detected with anti-mouse IgG; also called mAb 2-D11; 2-D11 anti-human RYK-Alexa647 conjugated mAb
